# Data from publication PMC4175418 (Methods in molecular biology (Clifton, N.J.), 2014).
# Molecular target: HIV-1 Rev (HIV-1, UniProt P04618)
# Sequence (P04618 whole entry): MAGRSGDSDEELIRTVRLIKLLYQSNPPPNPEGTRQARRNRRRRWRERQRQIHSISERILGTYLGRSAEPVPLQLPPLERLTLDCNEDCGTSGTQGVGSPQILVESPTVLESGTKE
binder,measurement,value
"anti-Rev Fab (chimeric rabbit/human) (Fab, V domains shown) VH: QEQLVESGGRLVTPGTALTLTCKVSGFSLSGFWLNWVRQAPGKGLEWVGAIYRGSGSEWYASWAKGRFTISDTSTTVTLKLTSPTTEDTATYFCAADTTDNGYFTIWGPGTLVTVSS VL: ELVMTQTPSSVSEPVGGTVTIKCQASQSISSWLSWYQQKPGQPPKLLIYDASNLASGVPSRFMGSGSGTEYTLTISGVQREDAATYYCLGGYPAASYRTAFGGGTELEII",Kd,< 0.1 nM
same,stoichiometry N,1
